Test results from patent publication US20260347441 (published 2026).
Each block holds one binder with its values, some of them ahead of it.

What was measured:
[1] = biological target: polatuzumab vedotin (humanized); test: SPR
[2] = biological target: human serum albumin (human, UniProt P02768); test: SPR

polatuzumab vedotin (humanized), sequence (VH, as listed by the source, chain 1 of 2): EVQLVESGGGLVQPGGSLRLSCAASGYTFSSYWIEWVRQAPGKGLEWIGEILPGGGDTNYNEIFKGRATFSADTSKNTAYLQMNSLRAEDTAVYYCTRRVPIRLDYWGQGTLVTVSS
polatuzumab vedotin (humanized), sequence (VL, as listed by the source, chain 2 of 2): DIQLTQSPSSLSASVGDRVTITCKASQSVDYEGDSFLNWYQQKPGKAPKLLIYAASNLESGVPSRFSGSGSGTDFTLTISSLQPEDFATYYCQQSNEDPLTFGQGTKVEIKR

binding result [1]: no binding
B1: ABC3315 (antibody, V domains shown)
VH: EVQLVESGGGLVKPGGSLKLSCAASGFTFSGYAMSWFRQAPEKRLEWVATISSGGSYTYYLDSVKGRFTISRDNSKNTLYLQMSSLRSEDTAVYYCLASLITTDYFEYWGQGTLVTVSS
VL: DIVMTQSPSSLSASVGDRVTITCRASQDVGTAVAWYQQKPGQSPKLLIYWASTRHTGVPDRFSGSGSGTDFTLTISGLQSEDEADYFCQQYSNYPYTFGGGTKLEIKR
modifications: peg12-biotin conjugated, immobilized on streptavidin; vc-MMAE conjugate (ADC)

Kd [2]: 2.34 µM
B2: ABC3315-WEDD (antibody, V domains shown)
VH: B1 VH
VL: B1 VL

Kd [2]: 10.5 µM
B3: ABC3315-WE (antibody, V domains shown)
VH: B1 VH
VL: B1 VL
